Reference: PMC10397247
One block for each binder: values may come before it.

What was measured:
APC4436-AA = target: T1, APC4436-AA; assay: two-hybrid library CCmax;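 also: natural log of median RNA to DNA barcode read ratio; higher means stronger binding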
T1 chain: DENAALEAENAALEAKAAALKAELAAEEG

APC5383-AA = target: T2, APC5383-AA; assay: two-hybrid library CCmax; conditions: mean of both orientations;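 also: natural log of median RNA to DNA barcode read ratio; higher means stronger binding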
T2 chain: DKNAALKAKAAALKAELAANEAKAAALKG

APC6108-AA = target: T3, APC6108-AA; assay: two-hybrid library CCmax; conditions: mean of both orientations;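 also: natural log of median RNA to DNA barcode read ratio; higher means stronger binding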
T3 chain: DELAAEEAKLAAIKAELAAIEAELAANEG

APC7099-AA = target: T4, APC7099-AA; assay: two-hybrid library CCmax; conditions: mean of both orientations;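 also: natural log of median RNA to DNA barcode read ratio; higher means stronger binding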
T4 chain: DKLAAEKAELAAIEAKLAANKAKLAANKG

APC8191-AA = target: T5, APC8191-AA; assay: two-hybrid library CCmax; conditions: mean of both orientations;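 also: natural log of median RNA to DNA barcode read ratio; higher means stronger binding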
T5 chain: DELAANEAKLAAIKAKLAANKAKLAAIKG

APC8910-AA = target: T6, APC8910-AA; assay: two-hybrid library CCmax; conditions: mean of both orientations;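 also: natural log of median RNA to DNA barcode read ratio; higher means stronger binding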
T6 chain: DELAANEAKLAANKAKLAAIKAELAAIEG

APC9096-AA = target: T7, APC9096-AA; assay: two-hybrid library CCmax; conditions: mean of both orientations
T7 chain: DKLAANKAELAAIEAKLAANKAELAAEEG

APC9319-AA = target: T8, APC9319-AA; assay: two-hybrid library CCmax; conditions: mean of both orientations
T8 chain: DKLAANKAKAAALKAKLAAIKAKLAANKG

4H619-bH = target: T9, 4H619-bH; assay: two-hybrid library CCNG1
T9 chain: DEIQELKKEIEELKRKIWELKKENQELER

4H850-bH = target: T10, 4H850-bH; assay: two-hybrid library CCNG1
T10 chain: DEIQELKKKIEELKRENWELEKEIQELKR

4H906-bH = target: T11, 4H906-bH; assay: two-hybrid library CCNG1
T11 chain: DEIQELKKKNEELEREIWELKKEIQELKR

4H462-bN = target: T12, 4H462-bN; assay: two-hybrid library CCNG1
T12 chain: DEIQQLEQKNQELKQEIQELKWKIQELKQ

4H568-bN = target: T13, 4H568-bN; assay: two-hybrid library CCNG1
T13 chain: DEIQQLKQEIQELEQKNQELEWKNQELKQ

4H607-bN = target: T14, 4H607-bN; assay: two-hybrid library CCNG1
T14 chain: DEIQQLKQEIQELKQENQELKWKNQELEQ

4H687-bN = target: T15, 4H687-bN; assay: two-hybrid library CCNG1
T15 chain: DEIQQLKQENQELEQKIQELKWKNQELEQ

4H72-bN = target: T16, 4H72-bN; assay: two-hybrid library CCNG1
T16 chain: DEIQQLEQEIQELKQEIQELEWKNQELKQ

4H797-bN = target: T17, 4H797-bN; assay: two-hybrid library CCNG1
T17 chain: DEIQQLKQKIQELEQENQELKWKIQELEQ

4H883-bN = target: T18, 4H883-bN; assay: two-hybrid library CCNG1
T18 chain: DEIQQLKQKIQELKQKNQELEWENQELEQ

4H918-bN = target: T19, 4H918-bN; assay: two-hybrid library CCNG1
T19 chain: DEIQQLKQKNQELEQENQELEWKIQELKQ

4H953-bN = target: T20, 4H953-bN; assay: two-hybrid library CCNG1
T20 chain: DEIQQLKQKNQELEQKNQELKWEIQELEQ

4H967-bN = target: T21, 4H967-bN; assay: two-hybrid library CCNG1
T21 chain: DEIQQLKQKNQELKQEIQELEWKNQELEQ

4H40-bH = target: T22, 4H40-bH; assay: two-hybrid library CCNG1
T22 chain: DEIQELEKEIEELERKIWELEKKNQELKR

4H477-bH = target: T23, 4H477-bH; assay: two-hybrid library CCNG1
T23 chain: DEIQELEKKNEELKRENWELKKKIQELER

4H492-bH = target: T24, 4H492-bH; assay: two-hybrid library CCNG1
T24 chain: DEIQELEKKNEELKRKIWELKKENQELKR

4H741-bH = target: T25, 4H741-bH; assay: two-hybrid library CCNG1
T25 chain: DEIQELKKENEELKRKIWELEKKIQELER

interaction score (APC4436-AA): -2.09
interaction score (APC5383-AA): -1.76
interaction score (APC6108-AA): -2.03
interaction score (APC7099-AA): -1.57
interaction score (APC8191-AA): -2.27
interaction score (APC8910-AA): -1.76
interaction score (APC9096-AA): -1.96
interaction score (APC9319-AA): -1.7
Binder: DENAALEAENAALEAKAAALKAELAAEEG [APC4436-AA]

interaction score (4H619-bH): 0.749
interaction score (4H850-bH): 0.196
interaction score (4H906-bH): -0.349
Binder: DEIQELKKEIEELKRKIWELKKENQELER [4H619-bH]

interaction score (4H462-bN): -0.578
interaction score (4H568-bN): 0.685
interaction score (4H607-bN): 0.42
interaction score (4H687-bN): -0.147
interaction score (4H72-bN): -0.825
interaction score (4H797-bN): -0.297
interaction score (4H883-bN): -1.4
interaction score (4H918-bN): -1.19
interaction score (4H953-bN): -0.25
interaction score (4H967-bN): -0.954
Binder: DEIQQLEQKNQELKQEIQELKWKIQELKQ [4H462-bN]

interaction score (4H40-bH): -0.0343
interaction score (4H477-bH): -0.00296
interaction score (4H492-bH): 0.0489
interaction score (4H741-bH): 0.646
Binder: DEIQELEKEIEELERKIWELEKKNQELKR [4H40-bH]

interaction score (4H477-bH): 0.526
interaction score (4H492-bH): -1.31
interaction score (4H741-bH): -0.234
Binder: DEIQELEKKNEELKRENWELKKKIQELER [4H477-bH]
